Data published in article PMC5324736.
Like-named read-outs stand apart in the source and are kept apart here.

What was measured:
[1] = biological target: eIF2•GDPNP•Met-tRNAi ternary complex; test: native gel or EMSA
[2] = biological target: eIF2•GDPNP•Met-tRNAi ternary complex; test: native gel or EMSA; remark: listed apart in the source

Substance | Kd [1] [µM] | Kd [2] [µM]
40S ribosomal subunit, anion exchange column preparation (complex) | 0.014 | < 0.001
40S ribosomal subunit, sucrose cushion preparation (complex) | 0.013 | < 0.001
